± gives the standard error. For some of these results: Variants at the floor of the assay were thinned out.
B1: glmS ribozyme (parent)
chain: AUAAAAGCGCCAGAACUACAGAAAUGUAGUUGACGAGGAGGAGGUUUAUCGAAUUUUCGGCGGAUGCCUCCAAA

Key:
Details in all cases: with glucosamine-6-phosphate
glucosamine-6-phosphate [1] = variants of: B1; assay: kcat; higher = faster cleavage; RNA array
Outline: (§1)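 Tiles of sequenced MiSeq chips were imaged over ~14 h at 37 °C. On them, barcoded ribozyme variants had been transcribed in situ by E. coli RNA polymerase and were tracked via a hybridised Cy3 probe while glucosamine-6-phosphate (40 μM to 10 mM) in HEPES/KCl/Mg(OAc)2 buffer flowed in. Per-tile medians, normalised to baseline and to non-cleaving reference variants, were fit to one- or two-exponential decays for kobs, and weighted Michaelis–Menten fits gave kcat and KM.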

glucosamine-6-phosphate [2] = variants of: B1; assay: KM; higher = weaker cofactor use; RNA array
Outline: as §1

glucosamine-6-phosphate [3] = variants of: B1; assay: self-cleavage kobs at 40 uM GlcN6P; higher = faster cleavage; RNA array
Outline: as §1

glucosamine-6-phosphate [4] = variants of: B1; assay: self-cleavage kobs at 160 uM GlcN6P; higher = faster cleavage; RNA array
Outline: as §1

glucosamine-6-phosphate [5] = variants of: B1; assay: self-cleavage kobs at 640 uM GlcN6P; higher = faster cleavage; RNA array
Outline: as §1

glucosamine-6-phosphate [6] = variants of: B1; assay: self-cleavage kobs at 2500 uM GlcN6P; higher = faster cleavage; RNA array
Outline: as §1

glucosamine-6-phosphate [7] = variants of: B1; assay: self-cleavage kobs at 10000 uM GlcN6P; higher = faster cleavage; RNA array
Outline: as §1

In the case of AUAAAAGCGCCAGAACUACAGAAAUGUAGUUGACGAGGAGGAGGUUUAUCGAAUUUUCGGCGGGGGCCUCCAAA, the kcat (glucosamine-6-phosphate [1]) is reported as 0.00619 ± 0.0017 s⁻¹, the KM (glucosamine-6-phosphate [2]) is reported as 4490 ± 1700 µM and the “self-cleavage kobs at 40 uM GlcN6P” value (glucosamine-6-phosphate [3]) is reported as 5.76e-05 ± 1e-05 s⁻¹. The “self-cleavage kobs at 160 uM GlcN6P” value (glucosamine-6-phosphate [4]) was 0.000262 ± 6e-05 s⁻¹, the “self-cleavage kobs at 640 uM GlcN6P” value (glucosamine-6-phosphate [5]) was 0.000845 ± 0.00015 s⁻¹ and the “self-cleavage kobs at 2500 uM GlcN6P” value (glucosamine-6-phosphate [6]) was 0.00174 ± 0.00029 s⁻¹. For the same variant, the “self-cleavage kobs at 10000 uM GlcN6P” value (glucosamine-6-phosphate [7]) was 0.00489 ± 0.00066 s⁻¹.

In the case of AUAAAAGCGCCCGAUCUACAGAAAUGUAGUUGACGAGGAGGAGGUUUAUCGAAUUUUCGGCGGAUGCCUCCAAA, the kcat (glucosamine-6-phosphate [1]) is reported as 0.00259 ± 0.00075 s⁻¹, the KM (glucosamine-6-phosphate [2]) is reported as 1430 ± 600 µM and the “self-cleavage kobs at 40 uM GlcN6P” value (glucosamine-6-phosphate [3]) is reported as 7.96e-05 ± 8.9e-06 s⁻¹. For the same variant, the “self-cleavage kobs at 160 uM GlcN6P” value (glucosamine-6-phosphate [4]) was 0.000208 ± 3.6e-05 s⁻¹, the “self-cleavage kobs at 640 uM GlcN6P” value (glucosamine-6-phosphate [5]) was 0.00126 ± 0.0002 s⁻¹ and the “self-cleavage kobs at 2500 uM GlcN6P” value (glucosamine-6-phosphate [6]) was 0.0012 ± 0.00021 s⁻¹. For the same variant, the “self-cleavage kobs at 10000 uM GlcN6P” value (glucosamine-6-phosphate [7]) was 0.00271 ± 0.00031 s⁻¹.

In the case of AUAAAAGCGCCAGAAGUACAGAAAUGUAGUUGACGAGGAGGAGGUUUAUCGAAUAUUCGGCGGAUGCCUCCAAA, the kcat (glucosamine-6-phosphate [1]) is reported as 0.00566 ± 0.0022 s⁻¹, the “self-cleavage kobs at 40 uM GlcN6P” value (glucosamine-6-phosphate [3]) is reported as 0.00015 ± 1.9e-05 s⁻¹ and the “self-cleavage kobs at 160 uM GlcN6P” value (glucosamine-6-phosphate [4]) is reported as 0.000313 ± 6.3e-05 s⁻¹. The “self-cleavage kobs at 640 uM GlcN6P” value (glucosamine-6-phosphate [5]) was 0.000819 ± 0.00014 s⁻¹, the “self-cleavage kobs at 2500 uM GlcN6P” value (glucosamine-6-phosphate [6]) was 0.00327 ± 0.00047 s⁻¹ and the “self-cleavage kobs at 10000 uM GlcN6P” value (glucosamine-6-phosphate [7]) was 0.00463 ± 0.00062 s⁻¹.

AUAAAGGCGCCAGAACUACAGAAAUGUAGUUGACGAGGAGGAGGUUUAUGGAAUUUUCGGCGGAUGCUUCCAAA was tested, and the kcat (glucosamine-6-phosphate [1]) was 0.000115 ± 2.9e-05 s⁻¹, the “self-cleavage kobs at 40 uM GlcN6P” value (glucosamine-6-phosphate [3]) was 5.04e-05 ± 2.1e-05 s⁻¹ and the “self-cleavage kobs at 160 uM GlcN6P” value (glucosamine-6-phosphate [4]) was 9.16e-05 ± 2.3e-05 s⁻¹. For the same variant, the “self-cleavage kobs at 640 uM GlcN6P” value (glucosamine-6-phosphate [5]) was 0.000189 ± 4.8e-05 s⁻¹, the “self-cleavage kobs at 2500 uM GlcN6P” value (glucosamine-6-phosphate [6]) was 0.000173 ± 4.6e-05 s⁻¹ and the “self-cleavage kobs at 10000 uM GlcN6P” value (glucosamine-6-phosphate [7]) was 7.92e-05 ± 2.5e-05 s⁻¹.

AUAAAAGCGCCAGAACUACAGAAAUGUAGUUGACGAGGAGGAGGUUUAUCGAAAUUCCGGCGGAUGCCUCCAAA was tested, and the kcat (glucosamine-6-phosphate [1]) was 0.000159 ± 5.5e-06 s⁻¹, the KM (glucosamine-6-phosphate [2]) was 2020 ± 160 µM and the “self-cleavage kobs at 640 uM GlcN6P” value (glucosamine-6-phosphate [5]) was 3.98e-05 ± 1e-05 s⁻¹. The “self-cleavage kobs at 2500 uM GlcN6P” value (glucosamine-6-phosphate [6]) was 8.52e-05 ± 1.3e-05 s⁻¹ and the “self-cleavage kobs at 10000 uM GlcN6P” value (glucosamine-6-phosphate [7]) was 0.000134 ± 2.1e-05 s⁻¹.

In the case of AUAAAAGCGCCAGAACUACAGAAAUGUAGUUGACGAGGAGGAGGUUUAUCGAAUUUUCGGCGGACGCCUCCAAA, the kcat (glucosamine-6-phosphate [1]) is reported as 0.000875 ± 9.1e-05 s⁻¹, the KM (glucosamine-6-phosphate [2]) is reported as 1690 ± 310 µM and the “self-cleavage kobs at 40 uM GlcN6P” value (glucosamine-6-phosphate [3]) is reported as 2.21e-05 ± 2.1e-06 s⁻¹. The “self-cleavage kobs at 160 uM GlcN6P” value (glucosamine-6-phosphate [4]) was 6.95e-05 ± 2.6e-06 s⁻¹, the “self-cleavage kobs at 640 uM GlcN6P” value (glucosamine-6-phosphate [5]) was 0.000238 ± 5.5e-06 s⁻¹ and the “self-cleavage kobs at 2500 uM GlcN6P” value (glucosamine-6-phosphate [6]) was 0.000626 ± 1.6e-05 s⁻¹. For the same variant, the “self-cleavage kobs at 10000 uM GlcN6P” value (glucosamine-6-phosphate [7]) was 0.000705 ± 1.6e-05 s⁻¹.

With AUAAAAGCGCCAGAACUACAGAAAUGUAGUUGACGAGGAGGAGGUUUAUCUAAUUUUCGGGGGAUGCCUCCAAA the kcat (glucosamine-6-phosphate [1]) was less than 1e-05 s⁻¹.

In the case of AUAAAAGCGCCAGAACUACAGAAAUGUAGUUGACGAGGAGGAGGUUCAGCGAAUUUUCGGCGGAUGCCUCCAAA, the kcat (glucosamine-6-phosphate [1]) is reported as 0.000198 ± 1.4e-05 s⁻¹, the KM (glucosamine-6-phosphate [2]) is reported as 1240 ± 220 µM and the “self-cleavage kobs at 640 uM GlcN6P” value (glucosamine-6-phosphate [5]) is reported as 6.46e-05 ± 1.7e-05 s⁻¹. The “self-cleavage kobs at 2500 uM GlcN6P” value (glucosamine-6-phosphate [6]) was 0.000146 ± 3.2e-05 s⁻¹ and the “self-cleavage kobs at 10000 uM GlcN6P” value (glucosamine-6-phosphate [7]) was 0.000169 ± 3.6e-05 s⁻¹.

With AUAAAAGCGCUAGAACUACAGAAAUGUAGUUGACGAGGAGGGGGUUUAUCGAAUUUUCGGCGGAUGCCUCCAAA the kcat (glucosamine-6-phosphate [1]) was 0.00345 ± 0.0015 s⁻¹, the “self-cleavage kobs at 40 uM GlcN6P” value (glucosamine-6-phosphate [3]) was 9.14e-05 ± 3.5e-05 s⁻¹ and the “self-cleavage kobs at 160 uM GlcN6P” value (glucosamine-6-phosphate [4]) was 0.000114 ± 3e-05 s⁻¹. For the same variant, the “self-cleavage kobs at 640 uM GlcN6P” value (glucosamine-6-phosphate [5]) was 0.000561 ± 0.00013 s⁻¹, the “self-cleavage kobs at 2500 uM GlcN6P” value (glucosamine-6-phosphate [6]) was 0.00178 ± 0.0004 s⁻¹ and the “self-cleavage kobs at 10000 uM GlcN6P” value (glucosamine-6-phosphate [7]) was 0.0022 ± 0.00065 s⁻¹.

For AUAAAAGCGCCAGGACUACAGAAAUGUAGUUGACGAUGAGGAGGUUUAUCGAAUUUUCGGCGGAUGCCUCCAAA, the kcat (glucosamine-6-phosphate [1]) was 2.35e-05 ± 1.3e-06 s⁻¹, the KM (glucosamine-6-phosphate [2]) was 1680 ± 470 µM and the “self-cleavage kobs at 40 uM GlcN6P” value (glucosamine-6-phosphate [3]) was less than 1e-05 s⁻¹. The “self-cleavage kobs at 10000 uM GlcN6P” value (glucosamine-6-phosphate [7]) was 2.02e-05 ± 1e-05 s⁻¹.

In the case of AUAAAAGCGCCAGAACUACAGAAAUGUAGUUGCCGAGGAGGGGGUUUAUCGAAUUUUCGGCGGAUGCCUCCAAA, the kcat (glucosamine-6-phosphate [1]) is reported as 0.00107 ± 0.0002 s⁻¹, the KM (glucosamine-6-phosphate [2]) is reported as 5240 ± 1500 µM and the “self-cleavage kobs at 640 uM GlcN6P” value (glucosamine-6-phosphate [5]) is reported as 0.000127 ± 2e-05 s⁻¹. The “self-cleavage kobs at 2500 uM GlcN6P” value (glucosamine-6-phosphate [6]) was 0.000266 ± 0.0001 s⁻¹ and the “self-cleavage kobs at 10000 uM GlcN6P” value (glucosamine-6-phosphate [7]) was 0.000716 ± 0.00011 s⁻¹.

With AUAAAAGCGCCAGAACUACAGAAAUGUAGUCGACGAGGAGGAGGUUUAUCGUAUUUUCGGCGUAUGCCGCCAAA the kcat (glucosamine-6-phosphate [1]) was 1.91e-05 ± 1.4e-06 s⁻¹.

In the case of AUAAAAGCGCGGGAACUACAGAAAUGUAGUUGACGAGGAGGAGGUUUAUCGAAUUUUCGGCGGAUGCCUCCAAA, the kcat (glucosamine-6-phosphate [1]) is reported as less than 1e-05 s⁻¹, the KM (glucosamine-6-phosphate [2]) is reported as 16.2 ± 6.9 µM and the “self-cleavage kobs at 40 uM GlcN6P” value (glucosamine-6-phosphate [3]) is reported as less than 1e-05 s⁻¹. The “self-cleavage kobs at 160 uM GlcN6P” value (glucosamine-6-phosphate [4]) was less than 1e-05 s⁻¹ and the “self-cleavage kobs at 10000 uM GlcN6P” value (glucosamine-6-phosphate [7]) was less than 1e-05 s⁻¹.

AUAAAAGCGCCAGAACUACAGAAAUGUAGUUGACGUGGAGGAGGUUUAUCGGAUUUUCGGCGGAUGCCUCCAAA was tested, and the kcat (glucosamine-6-phosphate [1]) was 1.01e-05 ± 3e-06 s⁻¹, the “self-cleavage kobs at 40 uM GlcN6P” value (glucosamine-6-phosphate [3]) was less than 1e-05 s⁻¹ and the “self-cleavage kobs at 10000 uM GlcN6P” value (glucosamine-6-phosphate [7]) was less than 1e-05 s⁻¹.

For AUAAAAGCGCCAGAACUACAGAAAUGUAGUAGACGAGGAGGAGGUUUAUCGAAUUUUCGGCGGAUGUCUCCAAA, the kcat (glucosamine-6-phosphate [1]) was 0.00291 ± 0.0011 s⁻¹, the “self-cleavage kobs at 40 uM GlcN6P” value (glucosamine-6-phosphate [3]) was 0.000116 ± 1.4e-05 s⁻¹ and the “self-cleavage kobs at 160 uM GlcN6P” value (glucosamine-6-phosphate [4]) was 0.000324 ± 8.8e-05 s⁻¹. The “self-cleavage kobs at 640 uM GlcN6P” value (glucosamine-6-phosphate [5]) was 0.00143 ± 0.00019 s⁻¹, the “self-cleavage kobs at 2500 uM GlcN6P” value (glucosamine-6-phosphate [6]) was 0.00135 ± 0.00029 s⁻¹ and the “self-cleavage kobs at 10000 uM GlcN6P” value (glucosamine-6-phosphate [7]) was 0.00427 ± 0.00063 s⁻¹.

With AUAAAAGCGCCAGAACUACAGAAAUGUAGUCGACGAGGAGGAGGUUUAUCGAAUUUGCGGCGGAUGACUCCAAA the kcat (glucosamine-6-phosphate [1]) was less than 1e-05 s⁻¹ and the “self-cleavage kobs at 160 uM GlcN6P” value (glucosamine-6-phosphate [4]) was less than 1e-05 s⁻¹.
